Numbering of substitutions follows the chain as printed. Names may count otherwise. Values belong to the binder of their own block, whether it stands above or below them.
Legend:
[1] = molecular target: T1, SUMO-Ulp2^781–873 (S. cerevisiae, UniProt P40537 781-873); assay: SEC-MALS
T1 sequence (looked up): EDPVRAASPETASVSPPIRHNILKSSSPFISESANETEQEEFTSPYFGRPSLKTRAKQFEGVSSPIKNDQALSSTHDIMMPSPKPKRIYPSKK

[2] = molecular target: the molecule itself; assay: crystal structure
[3] = molecular target: T2, Ulp2^825–844–Tof2^384–400 fusion (S. cerevisiae, UniProt P40537 825-844; Q02208 384-400); assay: co-expression in E. coli and co-purification
T2 chain (looked up): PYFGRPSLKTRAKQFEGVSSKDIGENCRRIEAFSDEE

[4] = molecular target: T3, His6-Csm1 (full-length) (S. cerevisiae, UniProt P25651 1-190); assay: pull-down
T3 sequence (looked up): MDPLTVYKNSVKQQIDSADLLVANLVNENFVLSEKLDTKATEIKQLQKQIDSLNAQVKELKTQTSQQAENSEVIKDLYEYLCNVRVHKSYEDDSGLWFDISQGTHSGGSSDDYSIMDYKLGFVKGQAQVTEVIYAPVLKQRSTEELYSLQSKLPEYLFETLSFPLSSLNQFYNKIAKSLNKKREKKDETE

[5] = molecular target: T4, His6-Csm1^69–190 (S. cerevisiae, UniProt P25651 69-190); assay: ITC
T4 sequence (looked up): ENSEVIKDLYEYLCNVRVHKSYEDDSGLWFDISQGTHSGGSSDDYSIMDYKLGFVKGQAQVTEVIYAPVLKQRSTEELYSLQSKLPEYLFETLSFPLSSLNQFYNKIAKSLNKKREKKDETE

stoichiometry N [1]: 1 Csm1 per Ulp2 (2:2)
B1: Csm1^69–181 (untagged, coexpressed) (domain or fragment, S. cerevisiae, UniProt P25651 69-181, looked up)
chain: ENSEVIKDLYEYLCNVRVHKSYEDDSGLWFDISQGTHSGGSSDDYSIMDYKLGFVKGQAQVTEVIYAPVLKQRSTEELYSLQSKLPEYLFETLSFPLSSLNQFYNKIAKSLNK
stoichiometry N [2]: 2

binding result [4]: binds
B3: GST-Ulp2^781–873 F827A (domain or fragment, S. cerevisiae, UniProt P40537 781-873, looked up)
chain: T1 sequence (looked up) with F47A

Ka [5]: 55800 M⁻¹ | dH [5]: -1.08 ± 0.0584 kcal/mol | stoichiometry N [5]: 0.46 ± 0.02
B6: His6-GST-Ulp2^781–873 F839D (domain or fragment, S. cerevisiae, UniProt P40537 781-873, looked up)
chain: T1 sequence (looked up) with F59D

Continued, binder first:

B2: Csm1^69–190 (untagged, coexpressed) (domain or fragment, S. cerevisiae, UniProt P25651 69-190, looked up)
chain: T4 sequence (looked up)
stoichiometry N [3]: 1 Csm1 per fusion chain (2:2)

B4: GST-Ulp2^781–873 F839A (domain or fragment, S. cerevisiae, UniProt P40537 781-873, looked up)
chain: T1 sequence (looked up) with F59A
binding result [4]: binds

B5: His6-GST-Ulp2^781–873 (domain or fragment, S. cerevisiae, UniProt P40537 781-873, looked up)
chain: T1 sequence (looked up)
Ka [5]: 1.07e+06 M⁻¹ | dH [5]: -8.613 ± 0.0517 kcal/mol | stoichiometry N [5]: 0.91 ± 0.004

— publication PMC5435892 (Genes & Development, 2017)
